These are literature values, as cited in paper PMC10167482.

The target in one series is IFNAR1 (Homo sapiens) (UniProt P17181).
The target of the next series is IFNAR2 (Homo sapiens) (UniProt P48551).
Sequence of UniProt P48551 (P48551 27-243): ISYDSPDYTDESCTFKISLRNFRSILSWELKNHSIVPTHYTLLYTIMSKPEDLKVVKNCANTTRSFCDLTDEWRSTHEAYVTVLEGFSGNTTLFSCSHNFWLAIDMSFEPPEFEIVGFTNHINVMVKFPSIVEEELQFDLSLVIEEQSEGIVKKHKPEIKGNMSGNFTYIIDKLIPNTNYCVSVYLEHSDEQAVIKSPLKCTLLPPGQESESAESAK

Sequence of UniProt P17181 (P17181 28-436): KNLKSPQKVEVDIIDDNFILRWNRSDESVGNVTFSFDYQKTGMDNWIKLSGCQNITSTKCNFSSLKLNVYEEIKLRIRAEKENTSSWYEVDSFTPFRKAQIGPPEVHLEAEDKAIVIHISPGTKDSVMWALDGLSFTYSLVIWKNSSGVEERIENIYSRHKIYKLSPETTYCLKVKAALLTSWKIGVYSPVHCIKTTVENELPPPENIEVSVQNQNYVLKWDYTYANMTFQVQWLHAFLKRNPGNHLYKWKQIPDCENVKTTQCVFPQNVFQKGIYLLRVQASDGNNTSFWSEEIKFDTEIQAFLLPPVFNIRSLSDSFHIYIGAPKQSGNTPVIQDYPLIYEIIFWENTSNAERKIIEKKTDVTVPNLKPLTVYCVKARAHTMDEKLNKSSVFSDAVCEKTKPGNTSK

The term Kd denotes the equilibrium constant for the complex coming apart. For IFN-β (from UniProt P01574), the Kd was 50 nM with IFNAR1 (Homo sapiens) and 0.2 nM in the series with IFNAR2 (Homo sapiens).
